The values that follow come from article doi:10.1101/2022.08.25.505150 (bioRxiv, 2022).

The term Kd denotes the concentration at which binding is half-saturated. A high value points to lower affinity. What is called stoichiometry N is the number of molecules, sites or subunits per partner or assembly.

The target of data set [1] is 6His-PilC (Streptococcus sanguinis 2908). Put plainly: ITC. (In general: Isothermal titration calorimetry measures the heat released or taken up as one component is titrated into another.)
For data set [2] the target is unchanged. In words: SEC-MALS. On the technique in general: SEC sorts molecules by how far they enter the pores of the column.
The data set “SEC-MALS” concerns the molecule itself. In words: SEC-MALS.

“6His-PilA (from UniProt A0A0B7GNW3 33-164) (domain or fragment)”: the Kd in data set [1] was 23.8 nM. The molecule also displayed a stoichiometry N in data set [2] of 1.

“PilA_(T95A) (from UniProt A0A0B7GNW3 33-164) (domain or fragment)”: the % of the wild-type binding (KD ratio to the WT) in data set [1] turned out to be 38.3%.

B1: 6His-PilA (domain or fragment, Streptococcus sanguinis 2908, UniProt A0A0B7GNW3 33-164, looked up)
chain: DTGQSQTQRMYNYLKAKYTATSGTQLAWGAYLDPVDGNPSSVYAEFDERAHNVDPSTEPIKSTHTFKDGSVAEIEMNGQLVDGLTGPENYNITIKSKSKLAGSNDYYEHIVTFNFDTKGIRSEEGHLRSAQK
Regarding B1, the “stoichiometry N” value in “SEC-MALS” was found to be 2.
